Literature values, collected in article PMC7642319.

Molecular target: NbpSH3 SH3 (Saccharomyces cerevisiae) (UniProt Q12163)
Sequence (Q12163 107-174): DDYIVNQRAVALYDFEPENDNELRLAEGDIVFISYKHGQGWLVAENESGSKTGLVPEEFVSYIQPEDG

Ste20, sequence (Q03497 2-939): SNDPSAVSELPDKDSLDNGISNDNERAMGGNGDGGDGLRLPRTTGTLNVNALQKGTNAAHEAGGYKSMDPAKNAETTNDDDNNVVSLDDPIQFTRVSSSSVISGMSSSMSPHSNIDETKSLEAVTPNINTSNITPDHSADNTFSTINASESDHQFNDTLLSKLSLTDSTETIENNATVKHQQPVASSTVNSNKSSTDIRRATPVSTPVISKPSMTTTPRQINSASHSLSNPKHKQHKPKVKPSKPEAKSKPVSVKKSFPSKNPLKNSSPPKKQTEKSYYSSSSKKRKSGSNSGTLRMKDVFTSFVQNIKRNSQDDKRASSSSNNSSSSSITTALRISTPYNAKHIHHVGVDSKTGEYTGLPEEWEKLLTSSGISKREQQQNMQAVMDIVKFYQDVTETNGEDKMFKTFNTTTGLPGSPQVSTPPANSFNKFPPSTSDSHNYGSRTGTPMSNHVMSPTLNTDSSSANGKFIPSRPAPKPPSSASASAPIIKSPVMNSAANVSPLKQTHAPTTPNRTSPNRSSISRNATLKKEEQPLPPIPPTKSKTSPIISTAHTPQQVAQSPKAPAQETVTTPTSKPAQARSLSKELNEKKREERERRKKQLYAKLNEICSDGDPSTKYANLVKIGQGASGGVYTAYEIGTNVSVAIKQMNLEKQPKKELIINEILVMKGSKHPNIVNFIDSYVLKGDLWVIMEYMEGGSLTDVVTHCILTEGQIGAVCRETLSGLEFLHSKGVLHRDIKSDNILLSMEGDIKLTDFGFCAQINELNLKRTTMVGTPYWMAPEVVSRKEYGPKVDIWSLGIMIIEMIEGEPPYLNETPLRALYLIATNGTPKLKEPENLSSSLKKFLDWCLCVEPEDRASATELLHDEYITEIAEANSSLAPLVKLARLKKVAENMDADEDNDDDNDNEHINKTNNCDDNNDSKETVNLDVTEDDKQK

- Kd: 200 nM
Substance: Ste20 (from UniProt Q03497)
